Measurements as given in US20240417428A1 (ZHEJIANG UNIVERSITY, published 2024).
Bridges are numbered along the chain shown (N, C = ends). Where no end group is shown, it is not given here.

Experiments:
Test in all cases: cell-based or functional assay
Nav1.5 = target: Nav1.5
TRPV3 = target: TRPV3
TRPV2 [1] = target: T1, TRPV2
T1 sequence (Q9Y5S1 whole entry, species assumed, looked up): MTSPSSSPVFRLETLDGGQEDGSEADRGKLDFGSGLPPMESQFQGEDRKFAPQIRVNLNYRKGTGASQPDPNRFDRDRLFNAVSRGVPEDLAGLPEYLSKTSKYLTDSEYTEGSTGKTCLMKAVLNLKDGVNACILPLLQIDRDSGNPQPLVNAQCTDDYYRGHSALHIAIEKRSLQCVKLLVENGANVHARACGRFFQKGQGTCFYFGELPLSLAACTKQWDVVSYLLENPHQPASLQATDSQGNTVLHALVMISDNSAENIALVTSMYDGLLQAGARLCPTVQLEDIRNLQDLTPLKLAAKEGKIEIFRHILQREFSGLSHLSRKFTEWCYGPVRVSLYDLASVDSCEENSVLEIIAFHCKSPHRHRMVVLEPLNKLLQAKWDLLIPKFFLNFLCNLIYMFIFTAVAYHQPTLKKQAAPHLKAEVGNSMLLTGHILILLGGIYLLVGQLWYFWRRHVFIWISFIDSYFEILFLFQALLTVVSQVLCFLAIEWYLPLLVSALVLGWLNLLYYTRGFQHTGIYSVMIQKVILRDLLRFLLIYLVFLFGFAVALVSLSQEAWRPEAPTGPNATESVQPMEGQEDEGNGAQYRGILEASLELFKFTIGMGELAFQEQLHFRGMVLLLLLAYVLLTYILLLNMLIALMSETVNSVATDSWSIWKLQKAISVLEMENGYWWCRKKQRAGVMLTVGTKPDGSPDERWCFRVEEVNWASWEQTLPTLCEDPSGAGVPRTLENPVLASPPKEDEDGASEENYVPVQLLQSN

TRPM2 = target: TRPM2
Nav1.7 = target: Nav1.7
mouse TRPM8 channel [2] = target: T2, mouse TRPM8 channel (mouse, UniProt Q8R4D5 1-1104)
T2 sequence (Q8R4D5 whole entry): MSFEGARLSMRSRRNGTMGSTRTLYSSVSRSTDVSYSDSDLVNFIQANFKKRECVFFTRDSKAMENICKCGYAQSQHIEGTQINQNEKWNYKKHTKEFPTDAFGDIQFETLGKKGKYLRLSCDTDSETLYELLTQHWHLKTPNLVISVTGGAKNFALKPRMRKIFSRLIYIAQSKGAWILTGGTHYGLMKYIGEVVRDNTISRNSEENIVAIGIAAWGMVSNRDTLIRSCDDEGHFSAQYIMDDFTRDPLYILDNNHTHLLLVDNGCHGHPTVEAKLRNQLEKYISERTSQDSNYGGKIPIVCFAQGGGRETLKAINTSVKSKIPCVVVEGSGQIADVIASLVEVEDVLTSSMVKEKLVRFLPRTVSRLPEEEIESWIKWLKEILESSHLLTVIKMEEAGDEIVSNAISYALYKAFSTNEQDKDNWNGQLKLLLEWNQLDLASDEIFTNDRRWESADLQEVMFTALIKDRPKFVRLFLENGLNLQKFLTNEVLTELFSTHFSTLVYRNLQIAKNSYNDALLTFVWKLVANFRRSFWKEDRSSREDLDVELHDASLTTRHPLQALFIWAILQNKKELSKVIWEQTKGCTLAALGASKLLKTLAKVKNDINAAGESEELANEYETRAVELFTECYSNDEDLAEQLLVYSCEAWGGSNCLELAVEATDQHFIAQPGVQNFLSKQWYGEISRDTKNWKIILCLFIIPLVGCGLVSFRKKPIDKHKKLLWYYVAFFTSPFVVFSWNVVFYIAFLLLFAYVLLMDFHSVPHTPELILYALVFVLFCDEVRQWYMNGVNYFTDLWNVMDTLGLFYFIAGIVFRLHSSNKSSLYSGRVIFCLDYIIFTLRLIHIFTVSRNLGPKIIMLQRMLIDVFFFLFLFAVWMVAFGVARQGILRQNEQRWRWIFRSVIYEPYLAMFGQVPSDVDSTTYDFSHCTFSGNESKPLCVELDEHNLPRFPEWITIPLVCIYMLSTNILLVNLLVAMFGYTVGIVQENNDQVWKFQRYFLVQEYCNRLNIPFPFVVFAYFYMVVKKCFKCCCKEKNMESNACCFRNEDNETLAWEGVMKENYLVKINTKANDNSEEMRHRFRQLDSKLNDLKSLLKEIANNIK

TRPA1 = target: TRPA1
Sequence of TRPA1 (O75762 whole entry): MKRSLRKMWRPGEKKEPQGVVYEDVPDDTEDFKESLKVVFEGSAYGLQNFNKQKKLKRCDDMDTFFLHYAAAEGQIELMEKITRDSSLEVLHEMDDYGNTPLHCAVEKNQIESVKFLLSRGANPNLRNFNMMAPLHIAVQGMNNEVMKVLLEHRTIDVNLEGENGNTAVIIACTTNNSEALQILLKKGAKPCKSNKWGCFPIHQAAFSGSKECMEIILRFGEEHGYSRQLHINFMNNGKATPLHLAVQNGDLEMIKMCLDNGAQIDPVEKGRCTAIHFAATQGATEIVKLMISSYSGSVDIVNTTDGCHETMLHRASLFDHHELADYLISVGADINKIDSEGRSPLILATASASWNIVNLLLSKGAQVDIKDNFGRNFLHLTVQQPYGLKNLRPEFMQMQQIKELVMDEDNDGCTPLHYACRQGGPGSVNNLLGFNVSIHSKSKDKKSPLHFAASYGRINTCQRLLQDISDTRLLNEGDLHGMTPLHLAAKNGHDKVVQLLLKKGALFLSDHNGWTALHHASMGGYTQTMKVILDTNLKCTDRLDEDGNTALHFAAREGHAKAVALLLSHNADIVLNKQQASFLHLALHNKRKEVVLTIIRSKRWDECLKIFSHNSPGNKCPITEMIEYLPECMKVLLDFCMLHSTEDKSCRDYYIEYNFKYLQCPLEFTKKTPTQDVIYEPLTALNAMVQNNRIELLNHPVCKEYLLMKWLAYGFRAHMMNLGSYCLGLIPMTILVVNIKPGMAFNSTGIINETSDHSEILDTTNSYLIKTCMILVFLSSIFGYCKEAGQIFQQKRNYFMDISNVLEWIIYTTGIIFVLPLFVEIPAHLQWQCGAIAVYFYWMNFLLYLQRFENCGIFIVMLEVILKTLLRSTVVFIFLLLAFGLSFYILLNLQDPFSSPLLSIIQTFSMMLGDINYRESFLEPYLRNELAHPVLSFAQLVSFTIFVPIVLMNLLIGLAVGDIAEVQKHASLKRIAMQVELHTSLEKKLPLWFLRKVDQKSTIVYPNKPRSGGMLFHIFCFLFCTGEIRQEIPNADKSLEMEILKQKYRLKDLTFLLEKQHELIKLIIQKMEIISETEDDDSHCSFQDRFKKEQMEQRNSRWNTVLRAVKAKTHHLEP

TRPV1 = target: TRPV1
TRPM4-K1045A = target: TRPM4-K1045A
TRPV2 [3] = target: T1, TRPV2; remark: listed apart in the source
mouse TRPM8 channel [4] = target: T2, mouse TRPM8 channel; remark: listed apart in the source

Sequence of TRPV3 (Q8NET8 whole entry): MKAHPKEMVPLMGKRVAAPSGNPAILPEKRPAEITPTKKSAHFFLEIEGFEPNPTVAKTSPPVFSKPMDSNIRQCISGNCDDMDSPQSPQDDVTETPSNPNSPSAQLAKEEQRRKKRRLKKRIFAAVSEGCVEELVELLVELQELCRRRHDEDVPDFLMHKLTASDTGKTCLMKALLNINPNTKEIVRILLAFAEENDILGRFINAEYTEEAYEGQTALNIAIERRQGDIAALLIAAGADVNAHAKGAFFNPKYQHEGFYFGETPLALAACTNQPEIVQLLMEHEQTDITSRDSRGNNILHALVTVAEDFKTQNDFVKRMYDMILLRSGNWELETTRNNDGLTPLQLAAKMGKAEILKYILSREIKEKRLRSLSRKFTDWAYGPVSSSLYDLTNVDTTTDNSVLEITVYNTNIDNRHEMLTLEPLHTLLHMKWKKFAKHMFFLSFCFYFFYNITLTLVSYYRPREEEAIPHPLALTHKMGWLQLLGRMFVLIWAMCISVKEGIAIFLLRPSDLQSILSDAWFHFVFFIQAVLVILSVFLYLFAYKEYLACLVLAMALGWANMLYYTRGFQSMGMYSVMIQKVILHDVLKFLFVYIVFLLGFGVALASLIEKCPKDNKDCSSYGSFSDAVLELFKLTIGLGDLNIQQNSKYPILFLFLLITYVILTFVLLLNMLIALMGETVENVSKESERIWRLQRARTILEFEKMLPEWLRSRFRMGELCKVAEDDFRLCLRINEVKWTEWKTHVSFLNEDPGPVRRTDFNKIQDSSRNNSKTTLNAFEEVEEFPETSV

B1: polypeptide DeC-1.2 (peptide)
peptide: CRRDRARHYRQRC
modifications: disulfide 1-13
B1 was tested, and the “IC50, inhibition of sodium channel current, electrophysiology” value (Nav1.5) was greater than 100 µM, the “IC50, inhibition of ligand-activated channel current, electrophysiology” value (TRPV3) was greater than 100 µM and the “IC50, inhibition of ligand-activated channel current, electrophysiology” value (TRPV2 [1]) was greater than 5 µM. The “IC50, inhibition of ligand-activated channel current, electrophysiology” value (TRPM2) was greater than 100 µM, the “IC50, inhibition of sodium channel current, electrophysiology” value (Nav1.7) was greater than 100 µM and the “IC50, inhibition of menthol-activated TRPM8 current, whole-cell electrophysiology” value (mouse TRPM8 channel [2]) was 4.5 nM. For the same binder, the “IC50, inhibition of channel current, electrophysiology” value (TRPA1) was greater than 100 µM, the “IC50, inhibition of ligand-activated channel current, electrophysiology” value (TRPV1) was greater than 100 µM and the “IC50, inhibition of ligand-activated channel current, electrophysiology” value (TRPM4-K1045A) was greater than 10 µM. For the same binder, the “half-inhibitory concentration (IC50), electrophysiology” value (TRPV2 [3]) was roughly 10 µM.

B2: polypeptide DeC-1.1 (peptide)
peptide: CRNSRAAHDSQKC
modifications: disulfide 1-13
With B2 the “half-inhibitory concentration (IC50), electrophysiology” value (mouse TRPM8 channel [4]) was 133 µM.
